Target: 23 amino acid synthetic peptide corresponding to the M2e domain of A/Fort Worth/1/50 (H1N1) (Influenza A virus A/Fort Worth/1/50 (H1N1))
Test: ELISA, 23mer M2e peptide coated at 1 µg/mL (FIG. 14b)

For “chimeric mouse V-region/human IgG1 kappa 14C2 antibody”, the EC50 was 0.01 µg/mL.

— patent US20110033476A1 (published 2011)
